The record followed here is paper PMC11263335.

Assay [1] deals with shrimp hemocyanin (SHC) from Litopenaeus vannamei (Litopenaeus vannamei) (UniProt Q26180). Put plainly: SEC + other: transmission electron microscopy (uranyl acetate stain); purified SHC in PBS; Superdex-200 elution and particle diameters on a carbon-coated grid (FEI F20, 120 kV), compared with AlphaFold models of monomer and tetramer.
Assay [2] shares this target. Nature of the assay: SEC; purified SHC dissolved in PBS, Superdex-200 column, size by standard proteins. On the technique in general: Size exclusion chromatography separates by hydrodynamic size, large species first.

Broadly, the stoichiometry N is the number of molecules, sites or subunits per partner or assembly.

Consider “shrimp hemocyanin (SHC) from Litopenaeus vannamei (from UniProt Q26180 1-662) (natural protein)”, for which the stoichiometry N in assay [1] amounted to 4. Also, in assay [2], the percent of SHC eluting between 158 and 440 kDa worked out at 80%.
